According to paper PMC2901844 (DNA repair, 2010):

B1: catalytic domain of human UNG2 (Δ93 UNG2) (domain or fragment, UniProt P13051-1 94-313, looked up)
chain: FGESWKKHLSGEFGKPYFIKLMGFVAEERKHYTVYPPPHQVFTWTQMCDIKDVKVVILGQDPYHGPNQAHGLCFSVQRPVPPPPSLENIYKELSTDIEDFVHPGHGDLSGWAKQGVLLLNAVLTVRAHQANSHKERGWEQFTDAVVSWLNQNSNGLVFLLWGSYAQKKGSAIDRKRHHVLQTAHPSPLSVYRGFFGCRHFSKTNELLQKSGKKPIDWKEL
B2: Cy-3 labelled Δ93 UNG2 (domain or fragment, human, UniProt P13051-1 94-313, looked up)
chain: B1 chain
modifications: Cy-3 label (Cy 3 Ab Labeling kit), sites not stated

How the values were obtained:
[1] = target: T1, full length Cricetulus griseus Xrcc1-ECFP (Cricetulus griseus, UniProt O54935 1-633); test: pull-down
T1 sequence (O54935 whole entry): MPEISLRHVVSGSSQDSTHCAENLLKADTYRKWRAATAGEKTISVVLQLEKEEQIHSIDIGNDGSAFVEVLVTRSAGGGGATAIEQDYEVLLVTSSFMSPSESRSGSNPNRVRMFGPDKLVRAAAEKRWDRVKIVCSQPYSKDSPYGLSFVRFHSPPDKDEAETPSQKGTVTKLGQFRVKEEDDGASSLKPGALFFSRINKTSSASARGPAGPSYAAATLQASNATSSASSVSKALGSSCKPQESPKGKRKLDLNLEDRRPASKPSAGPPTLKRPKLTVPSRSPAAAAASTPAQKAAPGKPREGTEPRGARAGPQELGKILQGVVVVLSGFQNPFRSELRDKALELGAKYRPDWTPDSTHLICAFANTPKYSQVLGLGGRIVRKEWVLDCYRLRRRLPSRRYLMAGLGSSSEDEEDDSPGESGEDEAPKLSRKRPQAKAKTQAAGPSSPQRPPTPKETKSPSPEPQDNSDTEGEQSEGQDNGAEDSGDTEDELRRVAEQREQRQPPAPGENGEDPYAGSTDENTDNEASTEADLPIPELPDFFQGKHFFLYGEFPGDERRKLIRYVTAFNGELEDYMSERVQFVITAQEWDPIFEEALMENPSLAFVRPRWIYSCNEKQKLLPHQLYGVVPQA

[2] = target: T1, full length Cricetulus griseus …; test: far-Western, overlay or dot blot
Xrcc1(1–325)-ECFP = Xrcc1(1–325)-ECFP (Cricetulus griseus, UniProt O54935 1-325); test: far-Western, overlay or dot blot
Xrcc1(1–325)-ECFP, sequence (O54935 1-325): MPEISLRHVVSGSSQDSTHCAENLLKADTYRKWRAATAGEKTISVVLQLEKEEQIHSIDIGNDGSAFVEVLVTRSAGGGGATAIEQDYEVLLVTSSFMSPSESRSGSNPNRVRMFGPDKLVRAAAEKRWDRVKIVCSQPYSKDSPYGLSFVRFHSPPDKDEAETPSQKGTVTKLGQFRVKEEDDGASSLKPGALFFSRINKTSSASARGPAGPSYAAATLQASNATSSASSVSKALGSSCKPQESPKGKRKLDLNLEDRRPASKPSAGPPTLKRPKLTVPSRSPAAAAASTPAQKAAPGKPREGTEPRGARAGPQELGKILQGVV

Row | Binder | binding result [1] | binding result [2] | binding result (Xrcc1(1–325)-ECFP)
1 | B1 | binds | – | –
2 | B2 | – | binds | binds
